From US20090110680A1, “Combination of an anti ED-B fibronectin domain antibody and gemcitabine” (priority 2006, published 2009)

What was measured:
[1] = test system: Capan-1, human pancreas adenocarcinoma xenografts; assay: Radiotherapy / combination therapy study in mice bearing human pancreatic tumour xenografts; type: in vivo; settings: for survival versus untreated control animals: control (36 days)
Procedure: ED-B-fibronectin domain expression in mouse pancreatic tumour models as well in human pancreatic cancer tissue, pancreatitis and normal pancreas was investigated by immunohistochemical analysis. SPECT (=single photon emission computed tomography) imaging was performed in an orthotopic pancreas cancer mouse model (DAN-G human pancreas carcinoma, DMSZ No. ACC249) with the ^99mTc labelled ED-B-fibronectin domain targeting scFv antibody fragment AP39, described in WO 03/055917. In addition MRI imaging was performed. In radiotherapy studies, mice bearing human pancreatic tumour xenografts (Capan-1, human pancreas adenocarcinoma, ATTC-No. HTB-79) were treated with a single dose of either 37 MBq or 74 MBq of ^131I-labelled ED-B-fibronectin domain targeting L19-SIP (=fusion protein). For combination therapy Capan-1 tumour bearing mice received two cycles of gemcitabine (1 g/m^2/week for three weeks with a one-week break), followed by a single dose of 37 MBq ^131I-L19-SIP 24 h after the first injection of gemcitabine. In a first experiment Capan-1 tumour bearing mice received either a single dose of 37 MBq of ^131I labelled ED-B-fibronectin domain targeting L19-SIP, or two cycles of gemcitabine (1 g/m^2/week for three weeks with a one-week break) as stand alone therapies. For combination therapy mice received two cycles of gemcitabine together with a single dose of 37 MBq ^131I-L19-SIP 24 h after the first injection of gemcitabine. In a second experiment Capan-1 tumour bearing mice were treated with a single dose of either 37 MBq or 74 MBq of ^131I labelled ED-B-fibronectin domain targeting L19-SIP (=fusion protein). For combination therapy Capan-1 tumour bearing mice received two cycles of gemcitabine (1 g/m^2/week for three weeks with a one-week break), together with a single dose of 37 MBq 1311-L19-SIP 24 h after the first injection of gemcitabine.

[2] = biological target: T1, ED-B domain of fibronectin (Homo sapiens, UniProt P02751); settings: cited from earlier work
T1 construct: The ED-B, a small domain of 91 amino acids
T1 sequence (P02751 1271-1359 limits assumed): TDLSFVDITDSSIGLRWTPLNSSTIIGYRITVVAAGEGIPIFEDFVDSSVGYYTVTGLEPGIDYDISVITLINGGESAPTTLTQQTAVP

## Nc1ccn([C@@H]2O[C@H](CO)[C@@H](O)C2(F)F)c(=O)n1 [gemcitabine, 2′-deoxy-2′,2′-difluorocytidine]
[1]; gemcitabine alone, two cycles (1 g/m^2/week for three weeks, one-week break), Capan-1 tumour bearing mice
  survival versus untreated control animals: did not differ from untreated control animals

## scFv(L19): human single chain Fv antibody fragment specific for the ED-B domain of fibronectin
[2]
  binding affinity for ED-B: picomolar

B1: ^131I-L19-SIP (conjugate, chains of the INN, looked up)
VH: EVQLLESGGGLVQPGGSLRLSCAASGFTFSSFSMSWVRQAPGKGLEWVSSISGSSGTTYYADSVKGRFTISRDNSKNTLYLQMNSLRAEDTAVYYCAKPFPYFDYWGQGTLVTVSS
VL: EIVLTQSPGTLSLSPGERATLSCRASQSVSSSFLAWYQQKPGQAPRLLIYYASSRATGIPDRFSGSGSGTDFTLTISRLEPEDFAVYYCQQTGRIPPTFGQGTKVEIK
modifications: small immunoprotein iodine-131 label
[1]; 37 MBq ^131I-L19-SIP alone, Capan-1 tumour bearing mice
  survival versus untreated control animals: did not differ from untreated control animals
[1]; 37 MBq ^131I-L19-SIP, single dose
  tumour growth inhibition compared to untreated control tumours: did not result in tumour growth inhibition
[1]; single dose of 74 MBq ^131I-L19-SIP alone, Capan-1 tumour bearing mice, untreated control 32 days
  median survival: 44 days
